{"source": "patent US20250368729A1", "key": {"[1]": {"target": "synthetic amyloid-like fibrils of recombinant amyloidogenic λ6 variable domain protein (rVλ6Wil)", "test": "EuLISA, substrate coated on plate"}, "[2]": {"target": "KEN hATTR amyloid extract (human) (UniProt P02766)", "test": "EuLISA, substrate coated on plate"}, "[3]": {"target": "SHI ALλ liver amyloid extract", "test": "EuLISA, substrate coated on plate"}, "[4]": {"target": "TAL ALκ liver amyloid extract", "test": "EuLISA, substrate coated on plate"}, "[5]": {"target": "Per125 wtATTR amyloid extract (human) (UniProt P02766)", "test": "EuLISA, substrate coated on plate"}, "[6]": {"target": "Aβ(1-40) amyloid-like fibrils (UniProt P05067)", "sequence (P05067 672-711 limits assumed)": "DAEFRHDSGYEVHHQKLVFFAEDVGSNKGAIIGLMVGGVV", "test": "pulldown of 125I-labelled antibody with the substrate pellet"}, "hIAPP fibril": {"target": "hIAPP fibril (UniProt P10997)", "sequence (P10997 34-70 limits assumed)": "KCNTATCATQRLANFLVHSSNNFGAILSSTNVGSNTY", "test": "pulldown of 125I-labelled antibody with the substrate pellet"}, "[7]": {"target": "KEN hATTR amyloid extract (human) (UniProt P02766)", "test": "pulldown, labelled antibody"}, "[8]": {"target": "SNO hereditary (h) ATTR amyloid extract (human) (UniProt P02766)", "test": "pulldown, labelled antibody"}}, "data": [{"substance": "hIgG1 control (antibody)", "values": [{"measurement": "EC50", "setting": "[1]", "value": 1280, "unit": "nM"}, {"measurement": "LogEC50", "setting": "[1]", "value": "5.89 -log(M)"}, {"measurement": "Max (maximal level of binding)", "setting": "[1]", "value": 39.3}, {"measurement": "LogEC50", "setting": "[2]", "value": "9.06 -log(M)"}, {"measurement": "Max (maximal level of binding)", "setting": "[2]", "value": -0.8}, {"measurement": "LogEC50", "setting": "[3]", "value": "7.88 -log(M)"}, {"measurement": "Max (maximal level of binding)", "setting": "[3]", "value": 2.5}, {"measurement": "LogEC50", "setting": "[4]", "value": "3 -log(M)"}, {"measurement": "Max (maximal level of binding)", "setting": "[4]", "value": 2220}, {"measurement": "LogEC50", "setting": "[5]", "value": "7.92 -log(M)"}, {"measurement": "Max (maximal level of binding)", "setting": "[5]", "value": 8.38}]}, {"substance": "murine antibody m11-1F4", "values": [{"measurement": "LogEC50", "setting": "[2]", "value": 2.39}, {"measurement": "Max (maximal level of binding)", "setting": "[2]", "value": 294000}, {"measurement": "bound to substrate (pulldown)", "setting": "[6]", "value": 4.6, "unit": "%"}, {"measurement": "bound to substrate (pulldown)", "setting": "hIAPP fibril", "value": 5.1, "unit": "%"}]}, {"substance": "murine Ig-peptide fusion Igp5 (murine 11-1F4 with peptide p5 fused to the N-terminus of the light chain) (antibody)", "values": [{"measurement": "EC50", "setting": "[2]", "value": 3.56, "unit": "nM"}, {"measurement": "LogEC50", "setting": "[2]", "value": "8.45 -log(M)"}, {"measurement": "Max (maximal level of binding)", "setting": "[2]", "value": 19.9}, {"measurement": "percent bound", "setting": "[7]", "value": 15, "unit": "%"}, {"measurement": "percent bound", "setting": "[8]", "value": 12, "unit": "%"}]}, {"substance": "chimeric (c) 11-1F4 (antibody)", "values": [{"measurement": "LogEC50", "setting": "[2]", "value": -1.36}, {"measurement": "Max (maximal level of binding)", "setting": "[2]", "value": 19700}]}]}
